# Target: the molecule itself
# Assay: atomic force microscopy; purified full-length IRR in DDM micelles deposited on mica; tapping mode in 150 mM NaCl, 20 mM sodium phosphate, 5% glycerol, pH 7.0 or pH 9.0; single receptor-micelle complexes sorted by the shape of the ectodomain
protein,measurement,value
"insulin receptor-related receptor (full-length human IRR with a C-terminal 6xHIS tag) (receptor, alpha subunit (about 100 kDa) of human insulin receptor-related receptor, cut from the single-chain precursor (about 170 kDa); beta subunit (about 70 kDa) of human insulin receptor-related receptor, cut from the single-chain precursor (about 170 kDa); holds the transmembrane segment and the tyrosine kinase domain; Some uncleaved proreceptor (170 kDa) was also seen on the blot; The receptor was …) chain 1: VEVCPSLDIRSEVAELRQLENCSVVEGHLQILLMFTATGEDFRGLSFPRLTQVTDYLLLFRVYGLESLRDLFPNLAVIRGTRLFLGYALVIFEMPHLRDVALPALGAVLRGAVRVEKNQELCHLSTIDWGLLQPAPGANHIVGNKLGEECADVCPGVLGAAGEPCAKTTFSGHTDYRCWTSSHCQRVCPCPHGMACTARGECCHTECLGGCSQPEDPRACVACRHLYFQGACLWACPPGTYQYESWRCVTAERCASLHSVPGRASTFGIHQGSCLAQCPSGFTRNSSSIFCHKCEGLCPKECKVGTKTIDSIQAAQDLVGCTHVEGSLILNLRQGYNLEPQLQHSLGLVETITGFLKIKHSFALVSLGFFKNLKLIRGDAMVDGNYTLYVLDNQNLQQLGSWVAAGLTIPVGKIYFAFNPRLCLEHIYRLEEVTGTRGRQNKAEINPRTNGDRAACQTRTLRFVSNVTEADRILLRWERYEPLEARDLLSFIVYYKESPFQNATEHVGPDACGTQSWNLLDVELPLSRTQEPGVTLASLKPWTQYAVFVRAITLTTEEDSPHQGAQSPIVYLRTLPAAPTVPQDVISTSNSSSHLLVRWKPPTQRNGNLTYYLVLWQRLAEDGDLYLNDYCHRGLRLPTSNNDPRFDGEDGDPEAEMESDCCPCQHPPPGQVLPPLEAQEASFQKKFENFLHNAITIPISPWKVTSINKSPQRDSG chain 2: not shown",binding result,binds

# From PMC8058561, “Activity-dependent conformational transitions of the insulin receptor–related receptor” (The Journal of Biological Chemistry, 2021)
